The RNAGym collection of RNA variant scans (doi:10.1073/pnas.2313332121)
Fewer inactive variants are shown than the library holds.

B1: TPR 5TU (parent)
chain: GGAUCUUCUCGAUCUAACAAAAAAGACAAAUCUGCCACAAAGCUUGAGAGCAUCUUCGGAUGCAGAGGCGGCAGCCUUCGGUGGCGCGAUAGCGCCAACGUUCUCAACUAUGACACGCAAAACGCGUGCUCCGUUGAAUGGAGUUUAUCAUG

Variants of: B1
Assay: polymerase ribozyme fitness, log enrichment relative to wild type (log ratio); higher = more active; in vitro selection for triplet polymerase activity
Method in brief: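 A single round of triplicate in vitro selection, including frozen incubation at −7 °C, was applied to PCR-built, transcribed mutant libraries of each subunit of a heterodimeric triplet polymerase ribozyme. Illumina sequencing of input and output libraries retained genotypes with ≥10 input reads and ≥1 read per output. Fitness is the base-2 logarithm of genotype enrichment divided by wild-type enrichment, from inverse-variance-weighted replicate averages.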

Row | Variant | polymerase ribozyme fitness (log ratio)
1 | C114U G141C | -3.4
2 | C96U U101G G124C | -0.75
3 | G58C G68A G94U C96G | ≤ -4.2
4 | G25A A49G C96G | -3.91
5 | G34U A47U | -2.01
6 | C5G C10G A28U U33G C79U | ≤ -4.2
7 | G86C U145C | -3.66
8 | G42A G58U A64G G68U G92C C95U C129U U134C | ≤ -4.2
9 | U4A C43G | ≤ -4.2
10 | A26U G62A | -1.51
11 | C18U C51U U53A G83A | -3.04
12 | C54A G94U A97C C125G | -2.89
13 | A16C C36U G59C | -2.53
14 | A20C U53A | -2.16
15 | A22U C87U G141U | 1.15
16 | A47G U53A | -0.375
17 | C35U A49C C79A C87A A119U | ≤ -4.2
18 | A16U C85G | -3.36
19 | A17U C87U G94C | -3.01
20 | U61G C63A G71U G80A G94U C105G C116G U139A | ≤ -4.2
21 | A19C G58C C95U G140U | -3.88

Row | Variant | polymerase ribozyme fitness (log ratio)
22 | A12G U45A A52U U55A C79G G81A A98G | ≤ -4.2
23 | U7G C69G C93A | ≤ -4.2
24 | C14G C18U C38U U53C G58A U90G C93G A115C C118U A137U | ≤ -4.2
25 | A49G A91G | -4.05
26 | C85U A122C | -1.06
27 | A52G C96U | -1.46
28 | C57G G59U C85U | -1.11
29 | A40C G42C C69G C85A U104G G128C G133A | ≤ -4.2
30 | A20C A40C U56A G92U | -0.349
31 | U31G A122U A142C | -1.56
32 | C51U C96U | -0.419
33 | A26U C118U | -0.616
34 | G92C C105G | -2.39
35 | C35G G86A A120C C125U G143C | ≤ -4.2
36 | C35U G42A G65C U77G C87A U101G G143A U151A | ≤ -4.2
37 | G58C A60G C75U | 0.32
38 | U4G C10A C35U G83U G88C A120C G143A | -4.17
39 | U6G C57A C85A C95U | -0.326
40 | A52C G88A U146G A150C | ≤ -4.2
41 | U13A C18G | -0.831
42 | A16G A91U | ≤ -4.2

Row | Variant | polymerase ribozyme fitness (log ratio)
43 | A17U G67C A91C C95U G100U A106U | ≤ -4.2
44 | A16U A106G U144A | -2.13
45 | G11C G25C A28G C36G C75U C96U A115U A122U | -3.98
46 | A16G A20C U78A C87U | ≤ -4.2
47 | A23G C85A A98C | -3.17
48 | G68U A73U G94A A119U | ≤ -4.2
49 | A12G G88A U109C A142C | -4.12
50 | C57A U82A A121U G133C | -0.916
51 | G86A A150G | -3.09
52 | C103G G117U | -0.61
53 | C85U C105U | -0.279
54 | C51U U53G A119U G143C | ≤ -4.2
55 | C57U G84A | -0.782
56 | G25U G42A C87G | ≤ -4.2
57 | G50U C95G | -0.905
58 | A21C U56G A89C C96A C116G A119C | -2.02
59 | A41G U146G | -0.0573
60 | C79G G88C G92A C125G | ≤ -4.2
61 | A37C C75G G80A C149G | ≤ -4.2
62 | A21C G58C U61G U146G | -3.25
63 | C36G G62C G84U | ≤ -4.2

Row | Variant | polymerase ribozyme fitness (log ratio)
64 | A21C A24U C32A G80A C93U C95A | ≤ -4.2
65 | C57U A64C A89U G128U U148A | ≤ -4.2
66 | A28U A47C U130G | ≤ -4.2
67 | A121U C125U G143C U146C | -3.38
68 | A40C G48A G58A C87U | -2.55
69 | U4A C38U C57A A66G C96G C105A C123G G124A C129G | ≤ -4.2
70 | U15C A26C C36U G84A A147U | -3.47
71 | G11C C14G C87A A121C U144A | ≤ -4.2
72 | C8U C79G G84A G94C G136C A138G A150G | ≤ -4.2
73 | C10U G11U A30U C76A A119U A120C A137U | ≤ -4.2
74 | C116U U134C | -0.00566
75 | A29C G65A C108U C116G C125A U146G A150G | ≤ -4.2
76 | C87U C123U C149G | -2.65
77 | C14G C36U U45G G59A C95U A97G A98U C125A U139G | -4.03
78 | A47C A66U C103G | ≤ -4.2
79 | A37C G92C G124C | -2.65
80 | A17G G59A G143C | -1.26
81 | A97G U130G | -2.77
82 | A12C C99A A119G U145C | -1.83
83 | A41U G83U G84U A98U A120U G124A | -3.95
84 | U31A A39G G67C C72G C96U A107U A113G A115C U148A | ≤ -4.2
